To fix the notation:
B1: GLY108: glycosyltransferase (UGT), SEQ ID NO: 14 (protein)
chain: MGSQQEHIVMLPFMAQGHIIPFLALAKQIQQRTGFTITIANTPLNIQYLRTTISTSDDSSRPCIRLAELPFCSSDHGLPPNTENTEALSFHQIVDLFHASKTLQAPFHSLVSGIIEKEGRPPLCIISDVFFGWATEVAKSLGTSNVTFTTGGGYGTAAYISLWQNLPHRATDSDYFALPGFPDSCRFHITQLHQYLRAADGTDAWSRYFQPQIALSLDSSGWLCNTAEEIEPHGLEILRNYVKPPVWTIGPLLPPALLNHSLSSGSSIFGQRAWKVSGVSPEKCLDWLDKHPQSSVLYISFGSQNTISPSQMMELALGLEDSGKPFIWVIRPPVGFDIEGEFRAEWLPQNFEQRMAESNQGLIVHKWAPQLEILSHKSTGVFLSHCGWNSVMESLCVGVPIIGWPLAAEQCYNSKMLTEDMGVAVELTRGRQGALERKEVKRVIELVMDSKGKGEEMKKKATEIGEKIRDAMREGGSSLKAMDDFVSTMLSKRQGY
B2: GLY119: glycosyltransferase (UGT), SEQ ID NO: 16 (protein)
chain: MGSLGHQLHIFFLPFFAHGHMIPSVDMAKLFASRGIKTTIITTPLNAPFFSKTIQKTKELGFDINILTIKFPAAEAGLPEGYENTDAFIFSENAREMTIKFIKATTFLQAPFEKVLQECHPDCIVADVFFPWATDAAAKFGIPRLVFHGTSNFALSASECVRLYEPHKKVSSDSEPFVVPDLPGDIKLTKKQLPDDVRENVENDFSKFLKASKEAELRSFGVVVNSFYELEPAYADYYKKVLGRRAWNVGPVSLCNRDTEDKAGRGKETSIDHHECLKWLDSKKPNSVVYICFGSTTNFSDSQLKEIAAGLEASGQQFIWVVRRNKKGQEDKEDWLPEGFEERMEGVGLIIRGWAPQVLILDHEAIGAFVTHCGWNSTLEGITAGKPMVTWPIFAEQFYNEKLVTDVLKTGVGVGVKEWFRVHGDHVKSEAVEKTITQIMVGEEAEEMRSRAKKLGETARKAVEEGGSSYSDFNALIEELRWRRP
B3: GLY73: glycosyltransferase (UGT), SEQ ID NO: 4 (protein)
chain: MEDAIVLYPSPGRGHLISMVELGKLILKNHPSFSITILILSEPNTNANSTAPNYVASSTTEYITTVNSTTPSITFHHLPPISEVPPSTSSFVELSYLIPRFNNQNLHQILKTISQTSKLKAFIIDFFCDAAFEVATNLDIPTYYFFTSGACYLAALLYRPTLHKKVDKSLKDLGNTLLDIPGLPPIQASDLPEPWKDRTSKEYQYSLNVAAHMAKSNGLLVNTFDLLETKAIKAISGGLCVPDRTTPPIFCIGPLISDSNQDVEDHECLNWLNSQPSRSVVFLCFGSLGLFSAKQLKEIAVGLENSGQRFLWVLRNPPSDNDKDPNLDELLPKGFLERTKEKGFVVKQWAPQVAVLRHDSVGGFVTHCGWNSVLEAVWCRVPMVGWPLYAEQRLNSVVLVEEIKLASGLNESEDGLVSAAELEKRVKELMDSEVGTEVRERVSGLRDEAVTAVKEGGSSHVALAKLAELWRQN
B4: GLY77: glycosyltransferase (UGT), SEQ ID NO: 8 (protein)
chain: MSTSELVFIPSPGAGHLPPTVELAKLLLHRDQRLSVTIIVMNLWLGPKHNTEARPCVPSLRFVDIPCDESTMALISPNTFISAFVEHHKPRVRDIVRGIIESDSVRLAGFVLDMFCMPMSDVANEFGVPSYNYFTSGAATLGLMFHLQWKRDHEGYDATELKNSDTELSVPSYVNPVPAKVLPEVVLDKEGGSKMFLDLAERIRESKGIIVNSCQAIERHALEYLSSNNNGIPPVFPVGPILNLENKKDDAKTDEIMRWLNEQPESSVVFLCFGSMGSFNEKQVKEIAVAIERSGHRFLWSLRRPTPKEKIEFPKEYENLEEVLPEGFLKRTSSIGKVIGWAPQMAVLSHPSVGGFVSHCGWNSTLESMWCGVPMAAWPLYAEQTLNAFLLVVELGLAAEIRMDYRTDTKAGYDGGMEVTVEEIEDGIRKLMSDGEIRNKVKDVKEKSRAAVVEGGSSYASIGKFIEHVSNVTI
B5: GLY164: glycosyltransferase (UGT), SEQ ID NO: 24 (protein)
chain: MKEKAELVFIPSPSVGHLVSVIVFAKRLLLLDRDNAAGSNNSFSITVLVMQEHTATASDNDAHIKSLAGAGATADVSIRFIGVPKMNPPPLDYFKSPEKFITEYVDSHKDCIKEAIIEHVLNNNVKIAGLVLDFFCSSMIDTANELGVPSYVFFTSGAAFLGFVLHLPTRGGEEFEESEADSADIFTYANPVPYRVLPSLCFNKHGGFSAFENFGRRFKETKGIIVNTFEELESHAVEYLMKCDGVPPVYNVGPMIDLHGDIHARPRGGGTQRDEIIRWLDDQPASSVVFLCFGSMGSFGEEQIKEVASGLGKSGVRFLWSLRKTPPKDRPEMPGEYTCVEDILPRGFQERSKGRGMICGWAPQKEVLAHSAIGGFVSHCGWNSILESVWFGVPIVTWPIYAEQQINAFQMVRDLGLAVELRLDYRRGTENHVMADELARAVGCVMDGDSEVRKRVKEVSEKARLALRDGGSSYAATGRLIEDLFGSVS
B6: GLY169: glycosyltransferase (UGT), SEQ ID NO: 26 (protein)
chain: MKKPELIFIPAPGVGHVISALEFAARLLGHDPRISITVLAIKAPFSSHLDAYTKSLVASQPRIALIDLPPVDPPPPELLRSVEHYVTVYIESYIPHVQRAVGEIQSSRSDSGSDRSVAGFVLDFFCTSMIDVADGFSLPSYIYLTSNAHFLDLMFHLPARHDQIGREARLSDPDLPLPNFANPVPVSVLPSAVLDGEAGGYAAYVKLARRFRDVRGIMVNTFMELERSALGSFSGGSWDGPAVYAVGPVIDPKGVPDPSLDRAHWEKIREWLDEQPPSSVVFLCFGSLGSFDADQVKEIASGIERSGHKFLWSLRPESSQSQLPVGFLERMRGRGIICGWTPQVEVLGHAAIGGFVSHCGWNSILESLWYGVPIVTWPIYAEQQLNAFTMVKELGLAVELRLDYKGQGIGGHLVPAEEIEKAVGRLMGDDAAETRKKVREMREAARNAVKEGGSSYDSIGRLIQDFINSIE
B7: GLY146: glycosyltransferase (UGT), SEQ ID NO: 18 (protein)
chain: MKKSELVFIPAPGIGHLVSALEFAKRLIDHDDRHSITVLSMKFPFTPFADEFTKSLVASHHGIQVIDLPPVDPPPPELLNSPENFVCAFIESLIPHVRNTLTDMLSSSSRVSGLVLDFFCLSLIDVGNELGVPSYMFLTSNSGFLGLMLHIPIRHNQKSAEFEESDAEVSLPGFWNPVPVSVLPGAVFDKDGGYSAYLKLAKRFRDTKGIIVNTFSELELDSVKSLSDGETPPVYMVGPVIDLKGQPNPSLDQAQREKIMHWLDDQPESSVVYLCFGSMGTFGAIQLREIATGLERSGHRFLWSMRVPQPAKGPDDILPEGFSERIGGRGLICGWAPQMEVLAHKAIKGFVSHCGWNSILESLWFGVPIATWPIYAEQQMNAFRMVKEFGLAVEMKLDYRLGDLVMADEIEIAVRRLMDDSDELRKKVKEMGEMARQAIIEGGSSYIAVGQLIEDILGSISCDN

The first experiment is described as follows: Glycosylation of 4-HO-MET by GLY enzymes (UDP-glucose), LC-UV/MS. Format: biochemical. The note with it: 0.5 mM 4-OH-MET, 1.25 mM UDP-glucose, 25% (v/v) GLY enzyme, 24 h at 30° C.; estimate from UV peak areas. The method, then: 4-HO-MET was dissolved in 100% (v/v) DMSO to a concentration of 10 mM. The solution was stored at −20° C. prior to use.
FastAP phosphatase (1 U/uL) from ThermoFisher Scientific (catalog no. EF0651).
GLY enzyme suspensions contain 10 mM Tris-HCl at pH7.4, 250 mM imidazole and 50% (v/v) glycerol.
(§1) The assay conditions were: • 100 mM Tris-HCl, pH 7.4 • 5 mM MgCl2 • 1 mM KCl • 1.25 mM UDP-glucose • 0.5 mM 4-OH-MET • 5% (v/v) DMSO • 0.1 U/uL Fast AP phosphatase • 25% (v/v) GLY enzyme
(§2) Incubation was 24 house at 30° C. Reactions were terminated adding 3 volumes of 75% (v/v) ethanol.
(§3) LC separation was performed using an Agligen 1290 Infinity II UHPLC equipped with a Phenomenex Kinetex XB-C18 column (1.7 um, 100 angstroms, 100×2.1 mm) and 4-HO-MET was detected by absorbance at 210 nm and 268 nm with an Agilent 1260 Infinity II DAD.
(§4) 0.1% Formic acid in water (A) and 0.1% Formic acid in acetonitrile (B) were used as the mobile phases for the elution gradient, with a flow rate of 0.4 ml/min. Retention time for 4-HO-MET using this type of instrument under these condition was 2.6 min. The system was coupled to an Ultivo Triple Quadrupole MS. To verify the presence of possible glycoside products, as SIM (Selected Ion Monitoring) method was used on the MS to analyse for the m/z 381 (theoretical mass to chart ratio of 4-HO-MET-glucoside) and m/z 219 (theoretical mass to charge ratio of 4-HO-MET).
As standard, 4-HO-MET solutions at a concentrations of 500, 250, 125, 62.5, and 31.25 uM were prepared from the 10 mM stock and used for caliboration.
A representative example of the chromatograms obtained with a wavelength of 268 nm for the standard solutions resuspended in the reaction buffer, and the corresponding MS-SIM signal, is shown in FIG. 16. The peak corresponding to 4-HO-MET is indicated.
When analyzing the GLY reactions, 30 of them gave an additional peak with retention time 2.2 min (i.e. in the expected region for a 4-HO-MET glucoside) and molecular mass compatible with the expected glucoside product, together with a corresponding decrease in substrate concentration, compared to the no-enzyme controls.
The method was repeated using various GLY enzymes to produce 4-HO-MET glucosides.
(§5) The enzymes giving the additional peak putatively corresponding to the 4-HO-MET-β-D-glucoside are listed below. […] A correct quantification of the product is not possible without a standard for the specific molecule. However, based on the assumption that the ratio area-to-concentration in the UV chromatograms will be similar to 4-HO-MET, estimates of the relative abundance for the additional peak are also given, expressed as percentage of converted 4-HO-MET. GLY enzymes hits are ranked according to their estimated conversion efficiency.
For the molecule B1, the “4-OH-MET GLY % (percentage of converted 4-HO-MET)” value was 8.7%.

In the case of B2, the “4-OH-MET GLY % (percentage of converted 4-HO-MET)” value is given as 6%.

In the case of B3, the “4-OH-MET GLY % (percentage of converted 4-HO-MET)” value is given as 7.4%.

Consider B4, for which the “4-OH-MET GLY % (percentage of converted 4-HO-MET)” value was 66.5%.

Turning to B5, the “4-OH-MET GLY % (percentage of converted 4-HO-MET)” value is on record as 10.2%.

As to B6, the “4-OH-MET GLY % (percentage of converted 4-HO-MET)” value is 52.3%.

The next experiment can be described thus: Glycosylation of 4-OH-EPT by GLY enzymes (UDP-glucose), LC-UV/MS. The experiment is classed as biochemical. As to conditions: conditions of Examples 1 and 2 repeated for 4-OH-EPT; estimate from UV peak areas. The procedure: as §1, §2, §3, §4, §5
The experiments described in Examples 1 and 2 above were repeated for 4-OH-EPT.
Below is the corresponding data for 4-OH-EPT.
As to B7, the “4-OH-EPT GLY % (percentage of converted 4-OH-EPT)” value is 5.3%.

B4: the “4-OH-EPT GLY % (percentage of converted 4-OH-EPT)” value is on record as 66.2%.

On to B6, for which the “4-OH-EPT GLY % (percentage of converted 4-OH-EPT)” value is recorded as 33%.

A short description of another experiment: Glycosylation of 4-OH-MiPT by GLY enzymes (UDP-glucose), LC-UV/MS. Format: biochemical. The note with it: conditions of Examples 1 and 2 repeated for 4-OH-MiPT; estimate from UV peak areas. The method, then: as §1, §2, §3, §4, §5
(§6) The experiments described in Examples 1 and 2 above were repeated for 4-OH-MiPT, 4-HO-DMT and 5-HO-DMT
Below is the corresponding data for 4-OH-MiPT.
B7: the “4-OH-MiPT GLY % (percentage of converted 4-OH-MiPT)” value is 23.2%.

Consider B4, for which the “4-OH-MiPT GLY % (percentage of converted 4-OH-MiPT)” value is given as 85%.

For the molecule B6, the “4-OH-MiPT GLY % (percentage of converted 4-OH-MiPT)” value is reported as 71.5%.

Another experiment in a line: Glycosylation of 4-OH-DMT by GLY enzymes (UDP-glucose), LC-UV/MS. Format: biochemical. As to conditions: conditions of Examples 1 and 2 repeated for 4-HO-DMT; estimate from UV peak areas. The procedure: as §1, §2, §3, §4, §5, §6
Below is the corresponding data for 4-OH-DMT and 5-HO-DMT.
For the molecule B3, the “4-OH-DMT GLY %” value was 14.0%.

As to B4, the “4-OH-DMT GLY %” value is listed as 30.2%.

For the molecule B6, the “4-OH-DMT GLY %” value is on record as 25.0%.
